{"source": "patent US6653460B1", "about": "(priority 1996, dated 2003)", "molecules": {"B1": {"name": "Aga-IIIA (peptide)", "peptide": "SCIDIGGDCDGEKDDCQCCRRNGYCSCYSLFGYLKSGCKCVVGTSAEFQGICRRKARQCYNSDPDKCESHNKPKRR"}}, "key": {"[1]": {"target": "L-type calcium channels of GH3 cells (rat)", "assay": "cell-based or functional assay"}, "[2]": {"target": "class A (P/Q) calcium channels (Oryctolagus cuniculus, UniProt P27884)", "sequence (P27884 whole entry)": "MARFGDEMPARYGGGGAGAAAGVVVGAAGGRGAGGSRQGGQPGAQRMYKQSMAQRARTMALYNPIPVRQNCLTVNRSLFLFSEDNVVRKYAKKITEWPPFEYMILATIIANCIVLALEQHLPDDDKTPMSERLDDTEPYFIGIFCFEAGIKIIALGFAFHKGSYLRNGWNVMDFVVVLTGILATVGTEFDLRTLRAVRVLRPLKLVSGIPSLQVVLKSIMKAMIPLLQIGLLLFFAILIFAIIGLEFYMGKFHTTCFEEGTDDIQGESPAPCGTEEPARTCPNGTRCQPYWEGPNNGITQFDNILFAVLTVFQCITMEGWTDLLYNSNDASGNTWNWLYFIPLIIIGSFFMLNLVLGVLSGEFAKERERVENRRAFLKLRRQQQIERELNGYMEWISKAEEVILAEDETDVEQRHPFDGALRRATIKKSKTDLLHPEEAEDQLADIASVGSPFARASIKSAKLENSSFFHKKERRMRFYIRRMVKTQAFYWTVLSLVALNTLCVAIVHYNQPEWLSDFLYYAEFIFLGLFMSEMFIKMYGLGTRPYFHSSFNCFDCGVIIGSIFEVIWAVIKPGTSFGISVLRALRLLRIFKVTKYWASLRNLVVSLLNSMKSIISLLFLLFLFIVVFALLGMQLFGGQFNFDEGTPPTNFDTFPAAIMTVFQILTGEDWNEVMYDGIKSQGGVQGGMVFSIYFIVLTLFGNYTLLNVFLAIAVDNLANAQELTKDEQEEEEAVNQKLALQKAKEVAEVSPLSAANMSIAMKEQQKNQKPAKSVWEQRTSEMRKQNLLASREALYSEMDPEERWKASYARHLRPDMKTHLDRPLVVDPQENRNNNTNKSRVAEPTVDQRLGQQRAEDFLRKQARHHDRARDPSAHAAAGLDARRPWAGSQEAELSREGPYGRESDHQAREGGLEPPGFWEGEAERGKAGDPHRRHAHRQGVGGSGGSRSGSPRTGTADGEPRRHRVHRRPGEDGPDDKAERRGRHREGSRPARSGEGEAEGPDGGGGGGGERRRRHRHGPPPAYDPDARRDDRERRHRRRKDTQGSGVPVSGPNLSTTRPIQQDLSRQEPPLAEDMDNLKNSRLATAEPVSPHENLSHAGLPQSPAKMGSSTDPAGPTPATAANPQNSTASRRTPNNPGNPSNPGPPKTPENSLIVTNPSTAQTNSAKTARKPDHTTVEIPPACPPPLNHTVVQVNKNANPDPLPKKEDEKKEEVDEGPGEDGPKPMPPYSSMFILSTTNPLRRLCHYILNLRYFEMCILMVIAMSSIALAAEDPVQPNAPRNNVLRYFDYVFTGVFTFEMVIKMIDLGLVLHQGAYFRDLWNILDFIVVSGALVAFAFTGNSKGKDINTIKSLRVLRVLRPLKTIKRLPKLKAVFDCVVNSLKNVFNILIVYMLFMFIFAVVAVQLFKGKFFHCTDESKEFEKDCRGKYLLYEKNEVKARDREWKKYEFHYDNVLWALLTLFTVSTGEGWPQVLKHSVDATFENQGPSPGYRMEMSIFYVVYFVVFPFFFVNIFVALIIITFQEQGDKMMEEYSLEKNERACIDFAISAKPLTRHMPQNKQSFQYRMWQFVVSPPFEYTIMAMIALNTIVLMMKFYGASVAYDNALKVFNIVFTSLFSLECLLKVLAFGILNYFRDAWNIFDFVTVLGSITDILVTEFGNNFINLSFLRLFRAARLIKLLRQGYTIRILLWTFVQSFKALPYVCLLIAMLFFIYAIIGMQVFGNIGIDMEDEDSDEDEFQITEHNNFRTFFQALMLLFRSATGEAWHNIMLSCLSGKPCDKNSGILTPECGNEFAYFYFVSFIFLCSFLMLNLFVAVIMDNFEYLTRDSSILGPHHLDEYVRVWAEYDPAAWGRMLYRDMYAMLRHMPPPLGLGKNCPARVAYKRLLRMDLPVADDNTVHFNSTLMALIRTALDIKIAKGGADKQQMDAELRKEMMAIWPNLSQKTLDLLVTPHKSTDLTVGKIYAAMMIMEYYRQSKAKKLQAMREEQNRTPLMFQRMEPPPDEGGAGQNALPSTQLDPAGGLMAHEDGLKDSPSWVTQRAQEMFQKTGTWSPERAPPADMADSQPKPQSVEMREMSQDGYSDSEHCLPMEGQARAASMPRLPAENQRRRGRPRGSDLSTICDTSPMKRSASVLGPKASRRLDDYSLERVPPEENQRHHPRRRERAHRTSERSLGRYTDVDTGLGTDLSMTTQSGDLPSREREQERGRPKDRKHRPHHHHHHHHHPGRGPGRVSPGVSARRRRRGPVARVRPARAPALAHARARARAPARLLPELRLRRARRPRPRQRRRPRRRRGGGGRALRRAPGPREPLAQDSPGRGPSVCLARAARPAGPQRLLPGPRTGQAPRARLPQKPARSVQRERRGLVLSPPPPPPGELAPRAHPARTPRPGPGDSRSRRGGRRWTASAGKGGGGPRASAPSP", "sequence (P13806 27-960 partner limits assumed)": "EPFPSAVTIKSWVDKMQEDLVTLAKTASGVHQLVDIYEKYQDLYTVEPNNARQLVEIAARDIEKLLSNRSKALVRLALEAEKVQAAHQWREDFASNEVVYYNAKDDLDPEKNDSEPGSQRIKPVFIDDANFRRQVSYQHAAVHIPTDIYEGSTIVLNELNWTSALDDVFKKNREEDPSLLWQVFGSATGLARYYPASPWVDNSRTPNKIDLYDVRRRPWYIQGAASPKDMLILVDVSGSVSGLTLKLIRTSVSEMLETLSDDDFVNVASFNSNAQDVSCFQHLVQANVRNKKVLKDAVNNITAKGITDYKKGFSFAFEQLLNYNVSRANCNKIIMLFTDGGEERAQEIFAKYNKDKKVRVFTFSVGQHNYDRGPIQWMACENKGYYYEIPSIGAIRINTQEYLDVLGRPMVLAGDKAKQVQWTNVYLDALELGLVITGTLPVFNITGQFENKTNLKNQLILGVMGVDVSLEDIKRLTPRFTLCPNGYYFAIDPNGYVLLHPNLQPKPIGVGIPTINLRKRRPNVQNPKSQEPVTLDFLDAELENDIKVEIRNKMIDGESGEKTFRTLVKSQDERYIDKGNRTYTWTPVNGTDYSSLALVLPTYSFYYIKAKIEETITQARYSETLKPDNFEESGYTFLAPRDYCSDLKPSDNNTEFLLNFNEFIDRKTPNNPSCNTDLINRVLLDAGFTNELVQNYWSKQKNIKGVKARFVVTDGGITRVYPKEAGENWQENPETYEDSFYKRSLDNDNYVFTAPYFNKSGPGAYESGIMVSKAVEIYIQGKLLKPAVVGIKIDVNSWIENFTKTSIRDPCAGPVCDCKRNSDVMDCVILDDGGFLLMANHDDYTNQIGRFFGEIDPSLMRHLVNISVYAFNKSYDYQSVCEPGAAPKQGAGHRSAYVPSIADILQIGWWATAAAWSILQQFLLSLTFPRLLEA", "sequence (P13806 961-1106 partner limits assumed)": "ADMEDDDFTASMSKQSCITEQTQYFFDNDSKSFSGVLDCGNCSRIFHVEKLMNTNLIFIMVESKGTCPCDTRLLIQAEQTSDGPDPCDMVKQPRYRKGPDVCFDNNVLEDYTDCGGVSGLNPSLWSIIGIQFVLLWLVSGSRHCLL", "sequence (Q02641 whole entry partner)": "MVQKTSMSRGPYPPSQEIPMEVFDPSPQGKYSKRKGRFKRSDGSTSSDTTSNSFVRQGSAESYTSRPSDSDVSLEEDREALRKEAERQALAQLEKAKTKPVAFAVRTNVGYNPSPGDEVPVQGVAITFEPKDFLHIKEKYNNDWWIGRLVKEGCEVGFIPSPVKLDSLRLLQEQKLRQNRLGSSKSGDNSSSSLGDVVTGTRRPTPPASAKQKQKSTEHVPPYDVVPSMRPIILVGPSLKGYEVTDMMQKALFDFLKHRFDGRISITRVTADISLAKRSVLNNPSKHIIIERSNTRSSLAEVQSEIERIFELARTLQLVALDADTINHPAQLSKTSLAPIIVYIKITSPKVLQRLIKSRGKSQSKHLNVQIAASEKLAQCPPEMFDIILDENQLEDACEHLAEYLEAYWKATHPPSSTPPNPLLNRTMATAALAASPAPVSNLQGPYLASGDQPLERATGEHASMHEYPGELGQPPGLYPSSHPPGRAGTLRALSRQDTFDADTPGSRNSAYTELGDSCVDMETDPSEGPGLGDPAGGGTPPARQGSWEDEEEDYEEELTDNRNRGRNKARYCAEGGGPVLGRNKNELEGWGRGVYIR", "assay": "Two-electrode voltage clamp of barium currents in Xenopus oocytes expressing class A alpha-1 subunits", "conditions": "4 mM barium", "description": "In these experiments, barium currents (4 mM barium, no added calcium, in medium) through the calcium channels were measured for technical reasons, in accordance with methods known in the art.\nThe cRNA for the alpha-1 subunit described in Mori et al. (1991) was expressed in Xenopus oocytes by standard methods (Goldin, 1992). For expression, cRNA for the alpha-1 subunit was co-injected with cRNA for the rabbit alpha2 and delta (Ellis et al. 1988) and human beta (Williams et al. 1992) subunits in equimolar ratios. Approximately 50 nL was injected per oocyte, with a total cRNA concentration of 0.8 μg/μL.\nCurrents were recorded, by two-electrode voltage clamp using a solution of 4 mM barium chloride, 38 mM potassium chloride, 36 mM tetraethylammonium chloride, 5 mM 4-aminopyridine, 0.4 mM niflumic acid, 5 mM HEPES (pH 7.5), and 0.1 mg/mL bovine serum albumin. Data were sampled at 5 kHz and filtered at 1 kHz utilizing a OC-725B voltage-clamp amplifier. (Warner Instruments) interfaced to PCLAMP software (Axon Instruments, Foster City, Calif.) for acquisition and analysis. Leak and capacitance currents were subtracted on-line using a P/4 protocol. Voltage pulses to 0 mV from a holding potential of −80 mV were used to elicit currents every 10 s."}, "DBA/2 mice": {"tested_on": "DBA/2 mice", "conditions": "mouse, in vivo"}, "[3]": {"target": "T1, class E calcium channels (192C cells) (Homo sapiens, UniProt Q15878)", "T1 construct": "expressed in transfected cells; host or cells: HEK 293 (192C cells)", "format": "cell-based"}, "[4]": {"target": "T2, N-type calcium channels (IMR-32 neuroblastoma cells) (Homo sapiens, UniProt Q00975)", "T2 construct": "host or cells: IMR-32 (differentiated)", "assay": "cell-based"}, "[5]": {"target": "class B voltage-gated calcium channel (human alpha-1B subunit) stably expressed in S3 cells (HEK 293) (human) (UniProt Q00975)", "assay": "cell-based or functional assay"}, "class E calcium channels": {"target": "class E calcium channels (Homo sapiens, UniProt Q15878)", "assay": "Class E channel blocking, summary statements (two separate measures of channel blocking activity)", "format": "cell-based", "conditions": "no method given"}}, "note": "“And” between values parts separate entries of the source, which are not always exact repeats. Identical values can stand only once. Like-named read-outs stand apart in the source and are kept apart here."}
{"molecule": "omega-Aga-IIIA (from UniProt P33034 1-76) (peptide)", "values": [{"measurement": "apparent IC50, depolarization evoked calcium signal at 60 seconds, INDO-1, GH3 cells (partial block)", "setting": "[1]", "value": 1.5, "unit": "nM"}]}
{"molecule": "[Cd]", "note": "[cadmium]", "values": [{"measurement": "effect on class A (P/Q) barium current", "setting": "[2]; concentration not given", "value": "completely blocked"}]}
{"molecule": "SNX-629: synthetic truncated HG-1 peptide corresponding to HG 1 (7-41), SEQ ID NO: 15 (CRYMFGGCSVNDDCCPRLGCHSLFSYCAWDLTFSD)", "values": [{"measurement": "ED50 for the anticonvulsant effect", "setting": "DBA/2 mice", "value": "about 5 μg/mouse"}, {"measurement": "concentration inhibiting class E channels relative to that of HG-1 in the same assay", "setting": "[3]", "value": "less than 20 times"}]}
{"molecule": "CCCC[C@@H]1NC(=O)[C@H](CC(C)C)NC(=O)[C@H](CCCNC(=N)N)NC(=O)[C@H](CO)NC(=O)[C@@H]2CSSC[C@@H]3NC(=O)[C@H](CO)NC(=O)CNC(=O)[C@H]([C@@H](C)O)NC(=O)[C@H](CSSC[C@H](N)C(=O)N[C@@H](CCCCN)C(=O)NCC(=O)N[C@@H](CCCCN)C(=O)NCC(=O)N[C@@H](C)C(=O)N[C@@H](CCCCN)C(=O)N2)NC(=O)[C@H](CSSC[C@@H](C(N)=O)NC(=O)[C@H](CCCCN)NC(=O)CNC(=O)[C@H](CO)NC(=O)[C@H](CCCNC(=N)N)NC3=O)NC(=O)[C@H](CC(=O)O)NC(=O)[C@H](Cc2ccc(O)cc2)NC1=O", "note": "[SNX-194]", "values": [{"measurement": "IC50", "setting": "[4]", "value": 1, "unit": "nM"}, {"measurement": "inhibition of remaining transient depolarization evoked increase in internal calcium", "setting": "[4]", "value": "nearly completely inhibited"}]}
{"molecule": "HG-1 peptide", "values": [{"measurement": "IC50, block of peak inward calcium current, whole cell patch clamp of S-3 cells", "setting": "[5]", "value": 800, "unit": "nM"}]}
{"molecule": "hanatoxin (ECRYLFGGCKTTSDCCKHEGCKFRDKTCAWDFTFS; listed as Grammostola spatulata)", "values": [{"measurement": "class E calcium channel antagonist activity", "setting": "class E calcium channels", "value": "neither of these peptides exhibits class E calcium channel antagonist activity"}]}
{"molecule": "B1", "values": [{"measurement": "IC50", "setting": "[4]; read-out: apparent IC50 for inhibition of depolarization evoked increase in internal calcium", "value": "0.1 nM and ~0.1 nM"}, {"measurement": "effect on class A (P/Q) barium current", "setting": "[2]; 60 nM", "value": "partially blocked"}]}
